19 sequences from the DeepSol protein solubility set can be followed below.

The data set can be described thus: soluble on expression in E. coli; label from the status in PepcDB or PDB records.
As for “MAVESRSRVTSKLVKAHRAMLNSVTQEDLKVDRLPGADYPNPSKKYSSRTEFRDKTDYIMYNPRPRDEPSSENPVSVSPLLCELAAARSRIHFNPTETTIGIVTCGGICPGLNDVIRSITLTGINVYNVKRVIGFRFGYWGLSKKGSQTAIELHRGRVTNIHHYGGTILGSSRGPQDPKEMVDTLERLGVNILFTVGGDGTQRGALVISQEAKRRGVDISVFGVPKTIDNDLSFSHRTFGFQTAVEKAVQAIRAAYAEAVSANYGVGVVKLMGRDSGFIAAQAAVASAQANICLVPENPISEQEVMSLLERRFCHSRSCVIIVAEGFGQDWGRGSGGYDASGNKKLIDIGVILTEKVKAFLKANKSRYPDSTVKYIDPSYMIRACPPSANDALFCATLATLAVHEAMAGATGCIIAMRHNNYILVPIKVATSVRRVLDLRGQLWRQVREITVDLGSDVRLARKLEIRRELEAINRNRDRLHEELAKL”, the “soluble on expression in E. coli” value was “soluble”.

Regarding “MAVLIETTLGDLIIDLFVKERPRCSLNFLKLCKKKYYNLNQFHSIERNYVAQTGDPTGTGKGGESVYSDMYGEQGRYFEREDLPKMRHTRMGIVSFVNNGDNMLGSQFFITLGENLDYLDDQHTIFGQVTEGLETLEKLNEQLADTNNRPFKDIRISHTIVLDDPFDEDARISFPPRSPSPTYEMLVKTDQIALDEKEDEDEGKTAEEIAEELQQREMAEQAQILEMVGDLKDADEVPPENVLFVCKLNPVTTDEDLEIIFSRFGKINNCEIVRDRRSGDSLQYAFIEFDNAKSCEQAFFKMDNVLIDDRRIHVDFSQSVSQNYKYKPKSQQQEAPKRRQSPQRRPEVKRSHQRSPSPRRRRSPSPKKDKKRDYRREPARRRRSSDNHRDRDRSYRDNNRDRRDNHRDSDRDRRRHDRSPDRRRDRR”, the “soluble on expression in E. coli” value is “not soluble”.

“MAVNLNPPQAGQLPAVAGVELLVAEAGIKTPGRKDVLVVKLDKGNTVAGVFTRNRFCAAPVQLCQEHLAAGVQIRALVVNTGNANAGTGFDGRARALSVCRAVAERDQLQTEQVLPFSTGVILEPLPADKIVAALPALRQADWAEAAEAIMTTDTLAKAASRRLDIGGKAVTVTGIAKGSGMIHPNMATMLGFVATDAAVTRPMLNQLVREVADQSFNSITVDGDTSTNDSFILISTGQSGAELIDSAEQPAYQQLKQALLEVAIELAQAIVRDGEGATKFITVDVNGGRSVAECKDVAYAIARSPLVKTAFFASDPNLGRLLAAIGYAGVADLDVDRLSLYLDDVLVACEGGRNPAYKEAQGQAVMNQSEITVRVELGRGSASARVWTCDFSYEYVRINADYRSLEHHHHHH”: the “soluble on expression in E. coli” value is given as “not soluble”.

With “MAVPATIPLTITNNSGRAEQIHIYNLGTELSSGRQGWADASGAFHPWPAGGNPPTPAPDASIPGPAPGRSTTIQIPKFSGRIYFSYGRKMEFRLTTGGLVQPAVQNPTDPNRDILFNWSEYTLNDSGLWINSTQVDMFSAPYTVGVRRGDGTTLSTGKLRPGGYNGVFNALRGQSGGWANLIQTRSDGTVLRALSPLYGVETGALPASVMDDYINRVWNKYTGTDLIVTPFADRPDVRYTGRVSGGVLRFTDGSGAVVTTFQKPDASSVFGCHRLLDAPNDQVRGPISRTLCAGFNRTTLLANPHQPDRSAAGFYQEPVTNHYARIIHAHMADGKAYGFAFDDVGHHESLVHDGDPRGASLTLDPFD”, the “soluble on expression in E. coli” value was “soluble”.

As for “MAVPPAYADLGKSAKDIFSKGYGFGTVKLDLKTKSQSGVEFTTGGSSNTDTGKAAGNLETKYKVKELGLSLNQKWNTDNVLTTEVTLEDQLAKGLKLGLDTSFVPNTGKKSAKLKTGYKREYMNVGCDLDFDLAGPTVHAAAVLGYEGWLAGYQMAFDTAKSKLAQNNFALGYKAGDFQLHTNVNDGTEFGGSIYQKVNGQLETAVNLAWTAGSNNTRFGIAAKYQLDKDSSVSAKVNNASLVGVGYTQSLRPGVKLTLSALIDAKNFNAGGHKVGMGFELEV”, the “soluble on expression in E. coli” value is on record as “not soluble”.

As to “MAVTVSVAQATPAPFDMAARFKALYTREWRWRQAEFPGVVERSSQPQCVDHLPKVDLARQNKRTAYWQQVLEELKTIDPVRLSSKDQINYQVYRQQIEVLLDGQRFRSWEMSFNSDTAFWSDLSFSARDRFRTSEDYRCYLGVLADIPRYFNEQIVNLRQGLARGFAQPRVTLEGRDQVIAEVAGAAGEDNLFYIPFKQMPTMMSAGEQARLRAQVLHLIVDQVVPAYRHLLAFMREEYLPKARTVLAAESLPGGVAYYRAKIFEYTTLDLDPEAIYQIGVAEVAKLRQQMDQVIVDSGFKTSPDQQIFSAFLRYLRTDPQFYPKTPEALLKEAAWIAKRVDAKIGLYIGRLPRRRFAIEPVPADVAPYYTSGRGGPGIYFVNTYDLPSRPLYNLTALTLHESSPGHALQMPLAEEAKEVPEFRRYAFISAYGEGWAVYAEYLGQEMGLYDTPYDRFGYLSYQIWRACRLVIDTGIHHKGWTRAQAQAYLRDNTALSEREITTEVDRYISWPGQALSYYLGELKILELRHKAEAALGAKFDIRHFHDAVLGLGSVPLQVLEARIDRFIAE”, the “soluble on expression in E. coli” value was “not soluble”.

Consider “MAVVGYISYDNRDTFMNAKDVLSTEIEAVNGKADTKESKECEDTQASDEVALETDSTEEILNAGETVLTSASTESEECVAQVKLGREQVRSKNKEALQKIIDDAGVSEAEKKSAVDAMVKLTENAQMEEDAQMMLEAKGFKNAVVSLSDECCDVIVGKDDVTDEKRAQIEDIIKRKTNIGASNIVISTMD”, for which the “soluble on expression in E. coli” value is “not soluble”.

As to “MAYGVMSWWDYGHYIETLGHRMPNANPFQAGIGGRRGSINETNVPGAAPFLTAQSEEEATEVLESIHPDPEKSGARYIMSDERMAVDIFMAMPEWTLDTEGYMQPYWTGDGYQYLPSKRYFDSMESRLHFLDGNGLKQYRLVYETWAYQTQEAGYKQVYNFLYGSSIPEVDSGYVKIFEYVKGAKITGTVSPNETVNINTTILTGQGRTFEYSQLEHHHHHH”, the “soluble on expression in E. coli” value is “not soluble”.

With “MCAVLRQPKCVKLRALHSACKFGVAARSCQELLRKGCVRFQLPMPGSRLCLYEDGTEVTDDCFPGLPNDAELLLLTAGETWHGYVSDITRFLSVFNEPHAGVIQAARQQLSDEQAPLRQKLLADLLHHVSQNITAETREQDPSWFEGLESRFRNKSGYLRYSCESRIRGYLREVSAYTSMVDEAAQEEYLRVLGSMCQKLKSVQYNGSYFDRGAEASSRLCTPEGWFSCQGPFDLESCLSKHSINPYGNRESRILFSTWNLDHIIEKKRTVVPTLAEAIQDGREVNWEYFYSLLFTAENLKLVHIACHKKTTHKLECDRSRIYRPQTGS”, the “soluble on expression in E. coli” value is “soluble”.

For “MCDIGNRQAYQRAQLDALLGRVRLQANQMEWRPGIYVGEGTTIASSAQLEPPLWIGQHCYIGEEVQLKAGTVIGDESRIEAGACLDRAVVWNRVQIGQRSHLEGCVLEHHHHHH”, the “soluble on expression in E. coli” value is “not soluble”.

With “MCEFKDFRRNIPCFKEYDENSFIGKWYDDGVWDDEEYWKLENDLIEVRKKYPYPMDIPRDIVIGIGTIIDFLMVQNWKLFEIKASTWLPKSVKINERYERFRVMLRYIFTDLDVEDWKFFYFPIQHSKGRLRRKV”, the “soluble on expression in E. coli” value was “not soluble”.

On to “MCINLQKMCKKCAKMCKICAKVCKKCAKNVQKKCKKCGKMCKKCAKKCLKKSKFSDPRNPKMLPTSLLVCSTGIPIECSAELLSKFKTRRI”, for which the “soluble on expression in E. coli” value is recorded as “soluble”.

For the sequence “MCLLTFAYQTNKRFPFVFAANRDEYYDRPTLFAHEWKEDPNVIGGRDLKKGGTWLGFTKEGKIAALTNVRDSFKHSGIPFQSRGFIVQDYLTSNTSAQLFMERLIQTADEFDGYNLVFGSYHDLYYYTNRMEKGEKLKPGYYMLSNGQMNSHWPKAVKVRTHLQSVLEREQDIETIIKKLLAIMQDEERFPDEQLPDTGVGIEWERILSPIFINGKTYGTRATTVIICTDEGESFFLEWNYGPMGIFLEKREFHIQLPSSYLNMKKDYELEHHHHHH”, the “soluble on expression in E. coli” value is given as “not soluble”.

Turning to “MCMAQRLNVNPTRMELSKLKKRLATATRGHKLLKDKQDELMRQFINLIKYNNQLRDEVEKELGSSLKDFVMARAVMSSEFLEEAIAYPKEEIEVEVGNKNIMSVNVPIMNFKRKLEGDEGSIYPYGFMNTSAELDDAISKLYGILPKLLELAEVEKSGQLMADEIEKTRRRVNALEYMTIPQLKETIRYIRMKLDENERSALTRLMKVKSMIEQRGLEHHHHHH”, the “soluble on expression in E. coli” value was “not soluble”.

For the sequence “MCMASKVLNKVMGIIGLNDEDFDEYEDEVMEEKAIARENSYDYDEKLNDKNSSNSNNKVVNIHTASSVKVVIVKPKDYDEATQIDDLKNRKIVVVNVTDLEPKTAQRLLDFMGGASYVLNGELLEIDKGVYLLSPSNVDISRDLKNDLASKSIFNWSKLEHHHHHH”, the “soluble on expression in E. coli” value is “not soluble”.

“MCMDRIEKLIKKVSKPARLSVERCRLYTESMKQTEGEPMIIRQAKALKHVLENIPIQILDSELIVGTMLPNPPGAIIFPEGVGLRIINELDSLPNRETNRLMVDEEDAKVLREEIAPYWQRKTIEAFAFPLMPDIMQILYTGSVFVLTEIAGISHVAVNYPYLLRRGFRWFLEESERRIRALEESGVYEGEKYSFYQAAKIVSEAVINYGLRYSKLAEELAESEDGERREELLKIAEICRKVPAEKPETFWEAVQFVWLVQSALHQENYEQAISMGRIDQYLYPFFKKDIGEGRINRELAFDILANLWIKTNEIVPAFDSLLEQYFSGQATNQAVTIGGCDIYGNDATNELTYLMLEVTDRLRLRQPNVHVRINKGSPESFLKRLAEAISSGCNNLALFFDDAAVKALKNAEVDDRDALNYTTDGCVEIAPFGNSFTSSDAALINVAKALEYALNEGVDLQFGYEFGAKTEKPKFLEDLLEKLREQVSHIVKLVVRGSNVLSYANAEVKPTPLLSLCVEDCFEKGVDVSRGGARYNFTGIQAVGIADVGDSLVAIEGALNAGYSMDDIVEACRKNFVGYEKLHKLLLQSPKYGNDDDAADKYTKMVLEWYCEEVNRHRNFRGGKFAAGCYPMTTNVGFGFFTSALPSGRKSGEPLNPGVSPSTGMDREGVTAVINSASKLSYENLPNGASLTINLSSDVLGEKGDAVIEALIKSSMELGVMHVQFNILKEDLLRKAQQEPEKYRWLLVRVAGWSAYFVELSRPVQEEVIRRISCRI”: the “soluble on expression in E. coli” value is listed as “soluble”.

On to “MCVGVPMTVVTSDNGTALCERRGEQRRVSTLLIGEVAVGDRVLVFIDNAMRLLEPDEARLIDDALDGLAAAMQGRDFEHLFADLIDREPQLPAFLRNDVVPPHG”, for which the “soluble on expression in E. coli” value is given as “not soluble”.

As to “MCVVIFLKFLFSDNGNNQHGTEAAFGRLAQSYRIQDLLFIIVIFFRAIHIMMFHRPPSARPPLNHVDQLKSLQATALGKPGMRSQATEPQPIGNTVSPLEFRIHDMNRRLYIFSSTGVSENDQQQWWDAFSHEFFDDDCKLWFVIGSEPVAFASRERYIINRQFIPKFFRSIFDSGMRELQYVLRGPSRECTLANGSQAYENENVLQITRYDQSSQFEVNTEGKLYVEFAPFDEVMNYRIKAWTLELKRSNEFVYNQNTADYRVEAQNPEQENKPRMGFFKSTFNLMTMLKILDPMQSIMSSAKSAPAITPREVMKRTLFQHHQVRQQNMRQQQLNQQMMIPAPEPEKPKPARKRQRKPAANPRGSKKATAAAAAAAAAATNGVPPTVPTASPANNQQFPPNPMTSQFQQMSYPDVMVVGEPSMMGSEFGENDERTISRVENSQYDPNAMQMQSLGQGPNSSMNINGRNMMNQHHPGMQPPPGQQHMPPHSMGSQMPTSMHNPMHMPPGSMQGHGGMPPMPSTMANQMPPPNLPPHTMSNQMPNSRMPPMQGQMPPSGMPGQMSNPNMMGSGMPPMSMSSQMPGSMSNPMPNQMPGGMQMNQMPPPNYSQYTGGPPPQWPPPNSAMITG”, the “soluble on expression in E. coli” value was “not soluble”.

Consider “MDAKVAFSPHSDANGRLDEIGADIDTAQSSVLFSLAFLGQMTRGAIGPALGRALERPEVHVMGIADAEVRAGNLGLNVLTPDNRRRVVRAAALTGNVPPPFLTEPSGLAGVDGNQRGTRMHHKFVVLDFDKPTARVYLGSYNFSNPADDENGENLVVVRDRTVATSYMIEALRMYDHYVFRVASEASDGPARPLEHHHHHH”, for which the “soluble on expression in E. coli” value is given as “not soluble”.
